Results reported in paper PMC11931385, “Structural and functional analysis of cancer-associated missense variants in the retinoblastoma protein pocket domain” (The Journal of Biological Chemistry, 2025).
Changes are numbered by the printed parent chain. Names and notes keep the numbering of the source. No end group written: not given here. TMR = tetramethyl rhodamine dye

T1: Rb^P D584Y (human, UniProt P06400 380-788, D584Y)
T1 construct: also called variant 32
T1 sequence (looked up): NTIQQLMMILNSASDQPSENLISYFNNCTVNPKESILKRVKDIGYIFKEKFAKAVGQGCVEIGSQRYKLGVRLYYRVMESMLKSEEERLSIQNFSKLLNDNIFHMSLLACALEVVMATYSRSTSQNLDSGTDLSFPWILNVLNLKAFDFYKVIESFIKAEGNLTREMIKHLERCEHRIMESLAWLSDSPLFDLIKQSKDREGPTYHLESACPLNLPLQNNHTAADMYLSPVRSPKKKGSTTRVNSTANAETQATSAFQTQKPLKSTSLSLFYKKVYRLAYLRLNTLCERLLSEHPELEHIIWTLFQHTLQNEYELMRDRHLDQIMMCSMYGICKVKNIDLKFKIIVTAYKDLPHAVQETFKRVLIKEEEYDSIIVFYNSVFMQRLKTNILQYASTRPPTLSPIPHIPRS

T2: Rb^P A490V (human, UniProt P06400 380-788, A490V)
T2 construct: also called variant 17
T2 sequence (looked up): T1 sequence (looked up) with A111V, Y205D

T3: Rb^P E440K (human, UniProt P06400 380-788, E440K)
T3 construct: also called variant 1
T3 sequence (looked up): T1 sequence (looked up) with E61K, Y205D

T4: Rb^P H686Y (human, UniProt P06400 380-788, H686Y)
T4 construct: also called variant 58
T4 sequence (looked up): T1 sequence (looked up) with Y205D, H307Y

T5: Rb^P K462E (human, UniProt P06400 380-788, K462E)
T5 construct: also called variant 8
T5 sequence (looked up): T1 sequence (looked up) with K83E, Y205D

B1: TMR-E2F1^TD, peptide of the E2F1 transactivation domain (peptide)
peptide: {TMR}-GEGIRDLFDCDFGDLTPLD
notes: also called E2F^TD; source: synthetic peptide, bought: GenScript
B2: TMR-E7^LxCxE, LxCxE peptide of the E7 oncoprotein from HPV (peptide)
peptide: DLYCYEQLN
modifications: also: TMR label, position not given here
notes: source: synthetic peptide, bought: GenScript

Experiments:
Assay in all cases: fluorescence polarisation; 37 °C, after the 25 °C reading ramped over 7 min to 37 °C and 2 min incubation; unlabeled Rb^P against 1.5 nM TMR-E2F1^TD or 7.5 nM TMR-E7^LxCxE; 25 mM Tris pH 8.0, 200 mM NaCl, 1 mM DTT, 0.1% Tween-20; apparent Kd
Details in all cases: both partners purified
[1] = biological target: T1, Rb^P D584Y
[2] = biological target: T2, Rb^P A490V
[3] = biological target: T3, Rb^P E440K
[4] = biological target: T4, Rb^P H686Y
[5] = biological target: T5, Rb^P K462E

Row | Binder | Kd [1] [nM] | Kd [2] [nM] | Kd [3] [nM] | Kd [4] [nM] | Kd [5] [nM]
1 | B1 | 51 | 87 | 27 | 35 | 67
2 | B2 | 20 | 33 | 13 | 14 | 32
